Earlier results, collected in PMC5257249.
Where two headings read alike, the source gives them in different places.

Key:
[1] = target: MMOH (Methylococcus capsulatus) (UniProt P22869); test: fluorescence anisotropy
[2] = target: MMOH (Methylococcus capsulatus) (UniProt P22869); test: fluorescence anisotropy; remark: listed apart in the source

Chain of UniProt P22869 (P22869 whole entry, chain 1 of 3): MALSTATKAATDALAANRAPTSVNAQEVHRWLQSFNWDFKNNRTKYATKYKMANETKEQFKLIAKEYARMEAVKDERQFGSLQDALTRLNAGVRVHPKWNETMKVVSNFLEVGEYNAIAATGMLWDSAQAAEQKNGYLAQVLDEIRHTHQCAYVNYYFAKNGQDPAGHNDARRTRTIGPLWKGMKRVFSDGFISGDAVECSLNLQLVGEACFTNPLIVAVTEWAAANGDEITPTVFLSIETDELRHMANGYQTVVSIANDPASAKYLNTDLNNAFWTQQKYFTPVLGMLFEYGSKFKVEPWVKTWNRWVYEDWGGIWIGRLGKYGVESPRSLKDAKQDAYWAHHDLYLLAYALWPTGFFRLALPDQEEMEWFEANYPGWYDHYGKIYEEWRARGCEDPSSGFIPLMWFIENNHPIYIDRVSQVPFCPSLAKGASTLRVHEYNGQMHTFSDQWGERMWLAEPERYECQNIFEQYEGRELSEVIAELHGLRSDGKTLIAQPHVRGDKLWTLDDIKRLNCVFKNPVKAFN
Chain of UniProt P22869 (P18798 2-389, chain 2 of 3, further chain): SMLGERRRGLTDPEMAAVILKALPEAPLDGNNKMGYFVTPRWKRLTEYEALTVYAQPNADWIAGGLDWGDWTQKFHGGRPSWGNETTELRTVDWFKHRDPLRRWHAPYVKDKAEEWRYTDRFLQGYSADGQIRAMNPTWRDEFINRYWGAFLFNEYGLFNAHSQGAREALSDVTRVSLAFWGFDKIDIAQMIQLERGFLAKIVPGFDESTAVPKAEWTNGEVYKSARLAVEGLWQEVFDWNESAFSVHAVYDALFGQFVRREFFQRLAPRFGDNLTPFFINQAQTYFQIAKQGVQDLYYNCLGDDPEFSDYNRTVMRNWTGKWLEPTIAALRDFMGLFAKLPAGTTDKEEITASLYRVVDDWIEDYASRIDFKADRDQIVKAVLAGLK
Chain of UniProt P22869 (P11987 2-170, chain 3 of 3, further chain): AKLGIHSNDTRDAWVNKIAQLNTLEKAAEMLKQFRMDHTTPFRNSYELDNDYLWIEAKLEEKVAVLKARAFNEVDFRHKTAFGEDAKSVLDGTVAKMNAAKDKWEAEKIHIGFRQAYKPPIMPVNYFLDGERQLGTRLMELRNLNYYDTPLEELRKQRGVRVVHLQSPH

In the case of MMOB (from UniProt P18797), the Kd [1] is given as 550 nM and the Kd [2] is given as 170 nM.
